This is an account of results in the Human Domainome abundance scans (Beltran et al. 2025).

± gives the uncertainty stated by the source.

The chains are these.
B1: POU domain, class 3, transcription factor 2, residues 262 to 338; numbered along this chain, P20265 (parent)
chain: EDTPTSDDLEQFAKQFKQRRIKLGFTQADVGLALGTLYGNVFSQTTICRFEALQLSFKNMCKLKPLLNKWLEEADSS

The data set covers variants of B1. Put plainly: abundance fitness (aPCA) (normalised: wild type 0, dead -1); higher = more abundant; growth selection in yeast, the domain comes from the species named. Particulars: Homo sapiens.
In the case of EDTPTSDDLEQFAKQFKQRRIKLGFTQADVGLALGTLYGNVFSQTTICRFEALQLSFKNMCNLKPLLNKWLEEADSS [K62N], the abundance fitness is -0.151 ± 0.068. For the variant EDTPTSDDLEQFAKQFKQRRIKLGFTQADVGLALGTLYGNVFSQTTICRFEALQLSFKNMCFLKPLLNKWLEEADSS [K62F], the abundance fitness is -0.126 ± 0.086.

Regarding EDTPTSDDLEQFAKQFKQRRIKLGFTQADVGLALGTLYGNVFSQTTICRFEALQLSFKNMCDLKPLLNKWLEEADSS [K62D], the abundance fitness is -0.045 ± 0.053. In the case of EDTPTSDDLEQFAKQFKQRRIKLGFTQADVGLALGTLYGNVFSQTTICRFEALQLSFKNMCSLKPLLNKWLEEADSS [K62S] it was -0.055 ± 0.032; in that of EDTPTSDDLEQFAKQFKQRRIKLGFTQADVGLALGTLYGNVFSQTTICRFEALQLSFKNMCILKPLLNKWLEEADSS [K62I], -0.045 ± 0.077.

Take EDTPTSDDLEQFAKQFKQRRIKLGFTQADVGLALGTLYGNVFSQTTICRFEALQLSFKNMCVLKPLLNKWLEEADSS [K62V]: the abundance fitness was -0.089 ± 0.031.

In the case of EDTPTSDDLEQFAKQFKQRRIKLGFTQADVGLALGTLYGNVFSQTTICRFEALQLSFKNMCGLKPLLNKWLEEADSS [K62G], the abundance fitness is -0.189 ± 0.027. The figure for EDTPTSDDLEQFAKQFKQRRIKLGFTQADVGLALGTLYGNVFSQTTICRFEALQLSFKNMCLLKPLLNKWLEEADSS [K62L] is -0.007 ± 0.036. On to EDTPTSDDLEQFAKQFKQRRIKLGFTQADVGLALGTLYGNVFSQTTICRFEALQLSFKNMCYLKPLLNKWLEEADSS [K62Y], for which the abundance fitness was -0.263 ± 0.07.

As to EDTPTSDDLEQFAKQFKQRRIKLGFTQADVGLALGTLYGNVFSQTTICRFEALQLSFKNMCELKPLLNKWLEEADSS [K62E], the abundance fitness was determined as 0.006 ± 0.038. In the case of EDTPTSDDLEQFAKQFKQRRIKLGFTQADVGLALGTLYGNVFSQTTICRFEALQLSFKNMCHLKPLLNKWLEEADSS [K62H] it was -0.156 ± 0.06; in that of EDTPTSDDLEQFAKQFKQRRIKLGFTQADVGLALGTLYGNVFSQTTICRFEALQLSFKNMCMLKPLLNKWLEEADSS [K62M], 0.02 ± 0.048; in that of EDTPTSDDLEQFAKQFKQRRIKLGFTQADVGLALGTLYGNVFSQTTICRFEALQLSFKNMCTLKPLLNKWLEEADSS [K62T], -0.059 ± 0.039.

On to EDTPTSDDLEQFAKQFKQRRIKLGFTQADVGLALGTLYGNVFSQTTICRFEALQLSFKNMCKLKPALNKWLEEADSS [L66A], for which the abundance fitness was -0.137 ± 0.034. The figure for EDTPTSDDLEQFAKQFKQRRIKLGFTQADVGLALGTLYGNVFSQTTICRFEALQLSFKNMCKLKPCLNKWLEEADSS [L66C] is -0.239 ± 0.05; for EDTPTSDDLEQFAKQFKQRRIKLGFTQADVGLALGTLYGNVFSQTTICRFEALQLSFKNMCKLKPDLNKWLEEADSS [L66D] it is -0.767 ± 0.23; for EDTPTSDDLEQFAKQFKQRRIKLGFTQADVGLALGTLYGNVFSQTTICRFEALQLSFKNMCKLKPELNKWLEEADSS [L66E] it is -0.637 ± 0.061.

On to EDTPTSDDLEQFAKQFKQRRIKLGFTQADVGLALGTLYGNVFSQTTICRFEALQLSFKNMCKLKPFLNKWLEEADSS [L66F], for which the abundance fitness is -0.05 ± 0.048. In the case of EDTPTSDDLEQFAKQFKQRRIKLGFTQADVGLALGTLYGNVFSQTTICRFEALQLSFKNMCKLYPLLNKWLEEADSS [K64Y] it was -0.019 ± 0.068; in that of EDTPTSDDLEQFAKQFKQRRIKLGFTQADVGLALGTLYGNVFSQTTICRFEALQLSFKNMCKLAPLLNKWLEEADSS [K64A], -0.06 ± 0.035.

For EDTPTSDDLEQFAKQFKQRRIKLGFTQADVGLALGTLYGNVFSQTTICRFEALQLSFKNMCKLDPLLNKWLEEADSS [K64D], the abundance fitness was -1.06 ± 0.23. In the case of EDTPTSDDLEQFAKQFKQRRIKLGFTQADVGLALGTLYGNVFSQTTICRFEALQLSFKNMCKLRPLLNKWLEEADSS [K64R] it was -0.092 ± 0.031; in that of EDTPTSDDLEQFAKQFKQRRIKLGFTQADVGLALGTLYGNVFSQTTICRFEALQLSFKNMCKLGPLLNKWLEEADSS [K64G], -0.449 ± 0.037. In the case of EDTPTSDDLEQFAKQFKQRRIKLGFTQADVGLALGTLYGNVFSQTTICRFEALQLSFKNMCKLIPLLNKWLEEADSS [K64I] it was -0.246 ± 0.083. In the case of EDTPTSDDLEQFAKQFKQRRIKLGFTQADVGLALGTLYGNVFSQTTICRFEALQLSFKNMCKLTPLLNKWLEEADSS [K64T] it was -0.118 ± 0.045; in that of EDTPTSDDLEQFAKQFKQRRIKLGFTQADVGLALGTLYGNVFSQTTICRFEALQLSFKNMCKLFPLLNKWLEEADSS [K64F], -0.264 ± 0.1; in that of EDTPTSDDLEQFAKQFKQRRIKLGFTQADVGLALGTLYGNVFSQTTICRFEALQLSFKNMCKLLPLLNKWLEEADSS [K64L], -0.131 ± 0.037.

Take EDTPTSDDLEQFAKQFKQRRIKLGFTQADVGLALGTLYGNVFSQTTICRFEALQLSFKNMCKLSPLLNKWLEEADSS [K64S]: the abundance fitness is -0.226 ± 0.042. The figure for EDTPTSDDLEQFAKQFKQRRIKLGFTQADVGLALGTLYGNVFSQTTICRFEALQLSFKNMCKLMPLLNKWLEEADSS [K64M] is -0.06 ± 0.05; for EDTPTSDDLEQFAKQFKQRRIKLGFTQADVGLALGTLYGNVFSQTTICRFEALQLSFKNMCKLVPLLNKWLEEADSS [K64V] it is -0.155 ± 0.034; for EDTPTSDDLEQFAKQFKQRRIKLGFTQADVGLALGTLYGNVFSQTTICRFEALQLSFKNMCKLHPLLNKWLEEADSS [K64H] it is -0.051 ± 0.074. In the case of EDTPTSDDLEQFAKQFKQRRIKLGFTQADVGLALGTLYGNVFSQTTICRFEALQLSFKNMCKLQPLLNKWLEEADSS [K64Q] it was -0.067 ± 0.045; in that of EDTPTSDDLEQFAKQFKQRRIKLGFTQADVGLALGTLYGNVFSQTTICRFEALQLSFKNMCKLEPLLNKWLEEADSS [K64E], -0.3 ± 0.046; in that of EDTPTSDDLEQFAKQFKQRRIKLGFTQADVGLALGTLYGNVFSQTTICRFEALQLSFKNMCKLNPLLNKWLEEADSS [K64N], -0.944 ± 0.26. In the case of EDTPTSDDLEQFAKQFKQRRIKLGFTQADVGLALGTLYGNVFSQTTICRFEALQLSFKNMCKLPPLLNKWLEEADSS [K64P] it was -0.931 ± 0.19. As for EDTPTSDDLEQFAKQFKQRRIKLGFTQADVGLALGTLYGNVFSQTTICRFEALQLSFKNMCKLWPLLNKWLEEADSS [K64W], the abundance fitness was -0.199 ± 0.04.
